assay: soluble fraction after stress (log2 fold change); higher = more stays soluble; pooled small domains, quantitative proteomics; details: stress: pH 4
In short: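 Custom libraries of small protein domains were pooled and measured with high-throughput quantitative proteomics after pH 4 stress. The read-out is the fold change in the amount of each domain that stays soluble after the acid stress, taken as a measure of aggregation propensity. Fold changes are on a log2 scale, and higher values mean more of the domain stayed soluble.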

Sequence | soluble fraction (log2)
HMTTAGTAIVQTGNSGKLNLREQAYANAGILGRYSNGTAVTVLQKGAAWSYVEVKGQKGYMMSKFLKFTS | -0.341
HMPASVEYIRLAAEQMTGQQVTIIEQPGNYAFILRIHLNDIYSLDLAALRARIDELKPAHLTYTVEQYD | -1.85
HMSTASPEELRQTPERRRLIEYLREHGGHGRTSEIAAALGIDDSTASRLLRRLADNGLIVRTQYGEYTLLQ | -0.0496
HMAGGVFELTGKVTADAKAGDLVYVKAATGAGTKPVVTTVKTGADVIIGWLKEPVSSASVDQKMQVVLA | 0.22
HMGASTQLVEIKNAYENGEWQNVIDLAGKLHEKYNGSEEDKEAQEMAKNSQSKLDEAAAAKAAEEA | 0.184
HMGGKTAVVTGSLVNVRKGPGTGNALVGQVARGDELPVLGQDGDWYQIKLANGSNGWVAGWLVSLKDAVP | -0.112
HMRITTKNYFKAISEVGFENLPEVLKKSHLVIEEKTNKGNDWGIYENDAEAKKVFDLAFDKLEEFIDRKED | -0.203
HMGGDFVEHLKDLASEAPVIRLVNTIIGRVIDLRASDIHLEPFDDGLHVRYRVDGVIHPGELVPPRLS | -0.249
HMKITKIWFTADHIFGRDEEGKEYSQSLLWYPKLSAASDEERSQYTFGYDGIHWRSLDEDISFESF | -1.52
HMVPTYEAYVGKEGLVVGTLRPAGTAEFDGERLDVVSEGEYLEAGTRVQIVRTEGRRIVVRKIN | -0.233
HMLLQTAVISTDIVNMRAEPTTNSSVIRKLTKGSDITINQEKDGWYKISDDQGNSGWIVTWAAKPT | -0.0639
HMRDLAEAETILDALPTRLRKIVRWRHLEGLSQTEIAARLEISQMHVSRLYRRAISMIHASLADD | -0.843
HMDAINYEDFQLLIKQRGSFKVAFEDIMFSTKVAIEKKEDFYDFVTKLIDNGFNNMAYNYLEGFQD | -2.34
HMGGSIDITTAPPGAKIYLDADYYGKTPKRLENISAGTYRLHLLHPEKGEVYRSVTLNEKNGTLKIDENLN | 0.0705
HMDDLFGNAIEMFNNQRYDMTYELLVQLLSETPNNEKAWQLLADTKFMLGDYDDALHIVGKAAK | -1.36
HMKDRNISSSVLEILSKDPDHTYNYKQIAALLGVKDAFIRKRIVTLLAQLAKDGHLDEISRGKYQIK | -0.0199
HMFDITKEVLKQSGLYNLYKNDESLEGINRIQNIEELLNGIKDFVENNEKSQASVSSFLQDVALATDQ | -0.217
HMDVLDVADNVNDDMSFADAFAAARSEVGAGGIFYWHGKAYGTYYENEWAGMSEEDKADYWDAVARTTS | -0.779
HMQDTTLTSQILRVPSSVNINDLANVLKSLAGKNTVVAPYKAANTIIITGYAPNVRRVLSLANELIPRLDV | -0.0875
HMAMTNEEREALISEIKQTVNNSIDLKKDISDTEIKEAITQAVFERSEKSYLSIAEKQDIITAVFNSMR | -0.159
HMRTYYEILGVSKNASLHEIQKAYRELALKYHPKNNSDPTAEEKFTQINEAYTHLSDAARRRSYDDL | 0.362
HMGSIEASFEEDVRRYLARKSMTTTEISKKMRQKRPDMSRDQLMTLLANAIKRIKPIKKKIKGTLYLSLE | 0.259
HMSGTESMIEGRGEARTAIDGEGKVFFQGEYWTAQSDQFIPQGAKVRIKKVEGLNLIVEEIK | -0.796
HMAPAPDEAFAEFVRSSAPSLTRTAWLLTGDRGHAQDLVQNAYAKTLQAWGRLDAEGALAYTRRAVIT | -0.0327
HMEYSTLEIYSQTKKDLIEKSPHLNKVVYDKDDGYIYLLSFEKEDDLTSFKSNIENDSDIKRIEANV | -0.91
HMSSGLLTVQEQRILEHLANGERNGDIAGRLHISEGTVKWHLHNMYRKLDAATRTQAVARARALRL | -0.428
HMSGWIATGTATSTGNDVRVRSTPDATVNNNILLTLNKGNRFEIDGQTQNGFYHIKVNDTIGWISGLYVKE | 0.0378
HMIEYILDYLANRGVYAASQGEQQQMEDGIARYLQENGLEDGNTGAYYQKYVSNHLQQISASDLKAYFLN | -1.49

Sequence | soluble fraction (log2)
HMQEESISWKEFLELDIIGDKKKRLKVYDLFHLGYGNAKTLFKRLNMVGISREMIEKELENEGY | -0.0561
HMVVVPPPATPKPGDVTGDNKINGYDLSILLSNWKRPGATLAQGDLNKDGVVNGLDLSIMLLNWG | 0.0857
HMSDTSAIEKIIDEVLSDESSQKAINDIKNGNEKVYGFLVGQVMKKSQGKANPGLVQKMLREKIAK | 0.22
HMSKFSDTLVYLRKRAGFSQQELADKMEVSRSLVGMYESGQRMPSYEMLEALADIFNVNIDFLTGH | -0.586
HMAPLEPLTDRETEMLVRLANGASNKVMARESFVSENTIKFHLKNIYAKLGVTSRLQAIAAARNQGLI | -0.0342
HMTKRTEPSILQNFDTEIAELIAKNRGISIMDALRIFLASKTHEMLENDEMKLWYFSPLAVFDMWENE | -0.61
HMEPEVEITYFKPDERKAGGAYVTVTGAVIKVDDFERLITMQDGTKIPMDDILSIDGELFLS | -1.08
HMVAGGTVSRKLSIETGLPKRKSLIGSWLDQNSVWHNIISVRHRNGYGDGVNYGFYLRSLLTSEGNLAW | 0.0466
HMSSTSTKTQNIVHIVKSGETLSAIASKYGVSVDNIKKWNNLSSDKLSIGQKLKINPTTQTSS | -0.186
HMALIGSNLRHLRNERKLSQQELADLIRVGRTTIANIEANLANPGHKTLLEIVKVFDITIDELLHTDLTK | -0.684
HMEKELVSDFASRISTARSSKGWNHAELGKRMAETVNVIKSAESGKPPTDSVVKKLERVLGITLMEV | -0.218
HMLLGDYIQKLRNQRGLSQQEFADKLGIGRSTLANYEQNKRSPDYETLIEISKFFNVSIDELLGV | -0.342
HMIKNKDRIQYTLAHRKAFRKIEKELLGYNTFRSLFHDLDKVFLYPFFDYKKVHNFHRNHAHH | 0.0879
HMPDAENFRYRVPYTTEQNRLQYYEGDIRAENADKARDQVMQDAQKYFAQNTAFTPNYIDTDIISLD | -0.615
HMENLTLVIGNKLKNIRNSRNLSLDDVAELTGVSKAMLGQIERGKSNPTVSTLWKISTGLRVSFSSFIDE | -0.249
HMDEETVALQKAIHSLPPKQQAVFNMRYYDEMSFREIADANETTESSAKANYHFAKAKIIEQMKR | 0.166
HMGKTIIQLATDYLIKNMQPKSLHDIESYVLTRKKIKKSSIGAILLSKPNIFGRTEDGLFGLRIWNNFQYT | -0.14
HMGKKYVPGMAVKLSAVPLYAASTSKVPSTHVTGTYYLWDDEVVRGRLRITNLKSRVGISGQVTGWIDKDR | 0.0244
HMNIGVEQIEQMERGALITLWQELIDKPLPRHMSIVFLRQVLAFEVQSKQNGGLPRGFITLLNKQAD | -0.868
HMIGRIKGQLIEKKSDSVVIDVHGIGYVVYVTEKTARSLTLGDQSRDISLYSELLVKEDLLQLVGFI | -0.0095
HMQAVDPLELRAGDFVVHEQHGIGRYVEMVQRTIGGITREYLVIEYAPAKRGQPNDRVFVPTDTLEQVS | -0.579
HMNIDNTWQPSEDVVEILTRSGINEDFINELIPEFIVYWTERPGTLVSYNSKFIEHVRLKWAQHSAEI | -1.04
HMSDAQIKASINDLWFKYNLETFAKLNLNVNQGRVLVTGIVQNPEHRLEAIRLVWTVDGVQQVINEIQVAE | -1.23
HMLTRSTVNVETGTAAIGLGKLYGVYDMSRKGLKYSFSVDSDAMTKVMEMLLPLGIKSLTVEPPS | -0.658
HMSQSIGQEKALSIALADAGVQKENALGLEVKGEYDDGQLLYEVEFRAGGVEYEYEVRASDGRIVKAERD | 0.0913
HMSKKMTNEEILNFLKKVLIKHGKISGFIIDEDDNGPSSSVVASRFGGLLNAYKLINYTPER | ≥ 0.43
HMNGSVLVTGGSVWIRAGASKETDGLGIVHKGDVLKRSGSDASGWRGVVYEGQNAFISAKYSSI | 0.424
